Reference: paper PMC11479942, “XPD stalled on cross-linked DNA provides insight into damage verification”

T1: XPD wild type (ctXPD) (Chaetomium thermophilum (paper: C. …, UniProt G0RZH0 1-780))
T1 sequence: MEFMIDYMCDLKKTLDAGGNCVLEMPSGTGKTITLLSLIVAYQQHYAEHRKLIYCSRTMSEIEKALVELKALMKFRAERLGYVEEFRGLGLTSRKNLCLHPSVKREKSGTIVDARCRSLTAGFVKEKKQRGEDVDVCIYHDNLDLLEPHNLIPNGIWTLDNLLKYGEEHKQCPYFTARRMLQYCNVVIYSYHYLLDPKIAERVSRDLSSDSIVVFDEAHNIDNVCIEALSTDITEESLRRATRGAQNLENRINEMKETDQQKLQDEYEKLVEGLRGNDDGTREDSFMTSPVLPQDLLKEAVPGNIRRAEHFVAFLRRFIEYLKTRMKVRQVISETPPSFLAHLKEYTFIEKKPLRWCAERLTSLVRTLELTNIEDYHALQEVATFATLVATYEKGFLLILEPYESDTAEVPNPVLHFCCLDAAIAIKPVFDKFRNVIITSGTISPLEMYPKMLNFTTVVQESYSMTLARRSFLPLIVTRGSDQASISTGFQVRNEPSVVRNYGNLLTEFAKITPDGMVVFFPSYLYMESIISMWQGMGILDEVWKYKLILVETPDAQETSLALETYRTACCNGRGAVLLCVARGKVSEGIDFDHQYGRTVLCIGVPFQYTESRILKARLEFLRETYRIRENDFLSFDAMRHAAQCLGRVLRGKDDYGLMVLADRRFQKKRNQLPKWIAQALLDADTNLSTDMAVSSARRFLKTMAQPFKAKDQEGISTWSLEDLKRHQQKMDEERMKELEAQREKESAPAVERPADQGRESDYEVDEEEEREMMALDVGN


How the values were obtained:
[1] = target: super-unplugged XPD variant (Chaetomium thermophilum)
[2] = target: T1, XPD wild type (ctXPD); experiment: fluorescence anisotropy; 5 mM MgCl2, no nucleotide; Fluorescence anisotropy: 20 mM HEPES pH 7.5, 50 mM KCl, 5 mM MgCl2, 1 mM TCEP, 5 nM DNA, room temperature; cryo-EM: same buffer, 10 uM complex, DNA 1.25:1, 5 mM ATP; conditions: protein: recombinant; tags: N-terminal 6xHis, TEV site (pBADM-11); label: 5' Cy3; hairpin with 5' overhang

XPD helicase activity (fluorescence-based, Y-forked DNA 250 nM, XPD–p44 250 nM) with equimolar XPG D924A (250 nM); inhibition by XPG D924A [1] | Molecule | Kd [2]
6 fold | XPG D924A from Chaetomium thermophilum (enzyme) | 
 | TTTTTTTTTTTTTTTCCCGGCCATGCGAAGCATGGCCGTT (structured_DNA) [5' overhang self-annealing hairpin] | 30 nM
